Source: PMC9575183 (Developmental cell, 2020)

Target: T1, Recombinant GST-RILP wt, full length (human, UniProt Q96NA2 1-401)
T1 sequence (looked up): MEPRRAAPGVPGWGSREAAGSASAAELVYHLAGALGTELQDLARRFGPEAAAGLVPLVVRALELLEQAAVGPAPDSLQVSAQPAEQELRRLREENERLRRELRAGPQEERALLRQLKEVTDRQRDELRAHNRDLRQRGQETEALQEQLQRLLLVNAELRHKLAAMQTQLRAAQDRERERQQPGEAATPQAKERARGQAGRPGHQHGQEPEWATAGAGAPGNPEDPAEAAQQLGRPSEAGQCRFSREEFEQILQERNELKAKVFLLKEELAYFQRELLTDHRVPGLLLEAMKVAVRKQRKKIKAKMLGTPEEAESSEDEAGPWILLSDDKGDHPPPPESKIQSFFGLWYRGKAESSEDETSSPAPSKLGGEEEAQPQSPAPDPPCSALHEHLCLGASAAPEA
Assay: pull-down

B1: Recombinant human His-tagged ATG5 (natural protein, UniProt Q9H1Y0 1-275, looked up)
chain: MTDDKDVLRDVWFGRIPTCFTLYQDEITEREAEPYYLLLPRVSYLTLVTDKVKKHFQKVMRQEDISEIWFEYEGTPLKWHYPIGLLFDLLASSSALPWNITVHFKSFPEKDLLHCPSKDAIEAHFMSCMKEADALKHKSQVINEMQKKDHKQLWMGLQNDRFDQFWAINRKLMEYPAEENGFRYIPFRIYQTTTERPFIQKLFRPVAADGQLHTLGDLLKEVCPSAIDPEDGEKKNQVMIHGIEPMLETPLQWLSEHLSYPDNFLHISIIPQPTD
binding result: binds
